PMC10145227

Columns and labels:
[1] = fibrin plate lysis area, t-PA standard; conditions: control: rDSPAα1
[2] = nanoDSF, F350/F330 ratio and scattering; conditions: control: rDSPAα1
[3] = S-2765 activity after 1 h at 30-90 °C or pH 3-12; conditions: control: rDSPAα1
[4] = purified protein yield from P. pastoris; conditions: control: rDSPAα1
[5] = ratio of S-2765 Kcat/Km, fibrin/fibrinogen; conditions: control: rDSPAα1
[6] = S-2765 hydrolysis kinetics, fibrinogen cofactor; conditions: control: rDSPAα1
[7] = S-2765 hydrolysis kinetics, fibrin cofactor; conditions: control: rDSPAα1
[8] = S-2765 hydrolysis kinetics, no cofactor; conditions: glycan lost; control: rDSPAα1
[9] = hindlimb vein bleeding time after dosing; conditions: control: rDSPAα1
[10] = ELISA time course after dosing; conditions: control: rDSPAα1
[11] = plasma plasminogen ELISA, slope versus time; conditions: control: rDSPAα1
[12] = H&E thrombus section score (higher is worse); conditions: control: rDSPAα1
[13] = recanalization rate, FeCl3 carotid thrombosis; conditions: control: rDSPAα1
[14] = thrombus length, dry and wet weight; conditions: control: rDSPAα1
[15] = ELISA, slope of concentration versus time; conditions: control: rDSPAα1
[16] = blood routine examination, 1 h after dosing; conditions: glycan gained; control: rDSPAα1

B1: DSPAα1: ANGlyα1 + U (protein)
parent chain: MVNTMKTKLLCVLLLCGAVFSLPRQETYRQLARGSRAYGVACKDEITQMTYRRQESWLRPEVRSKRVEHCQCDRGQARCHTVPVNSCSEPRCFNGGTCWQAVYFSDFVCQCPAGYTGKRCEVDTRATCYEGQGVTYRGTWSTAESRVECINWNSSLLTRRTYNGRMPDAFNLGLGNHNYCRNPNGAPKPWCYVIKAGKFTSESCSVPVCSKATCGLRKYKEPQLHSTGGLFTDITSHPWQAAIFAQNRRSSGERFLCGGILISSCWVLTAAHCFQESYLPDQLKVVLGRTYRVKPGEEEQTFKVKKYIVHKEFDDDTYNNDIALLQLKSDSPQCAQESDSVRAICLPEANLQLPDWTECELSGYGKHKSSSPFYSEQLKEGHVRLYPSSRCAPKFLFNKTVTNNMLCAGDTRSGEIYPNVHDACQGDSGGPLVCMNDNHMTLLGIISWGVGCGEKDVPGVYTKVTNYLGWIRDNMHL
[1]; glycan gained
  enzymatic_activity, percent_of_wt: decreases
[2]; glycan gained
  stability_or_folding: no change
[3]; glycan gained
  stability_or_folding: no change
[4]; glycan gained
  expression_or_secretion, percent_of_wt: no change

B2: DSPAα1: QNGlyα1-1 (protein)
parent chain: B1 parent chain
[1]; glycan lost
  enzymatic_activity, percent_of_wt: decreases
[2]; glycan lost
  stability_or_folding: no change
[3]; glycan lost
  stability_or_folding: no change
[5]; glycan lost
  other: fibrin selectivity, other: ratio Fbn/Fbg: decreases, 1.100 vs 20.800
[6]; glycan lost
  enzymatic_activity, kcat_Km: no change, 292.580 ± 1.780 vs 282.240 ± 13.070
[7]; glycan lost
  enzymatic_activity, kcat_Km: decreases, 333.760 ± 20.680 vs 5883.440 ± 983.570
[4]; glycan lost
  expression_or_secretion, percent_of_wt: decreases
[8]
  enzymatic_activity, kcat_Km: no change, 38.800 ± 0.780 vs 34.830 ± 2.350

B3: DSPAα1: QNGlyα1-2 (protein)
parent chain: B1 parent chain
[1]; glycan lost
  enzymatic_activity, percent_of_wt: decreases
[2]; glycan lost
  stability_or_folding: no change
[3]; glycan lost
  stability_or_folding: no change
[5]; glycan lost
  other: fibrin selectivity, other: ratio Fbn/Fbg: decreases, 8.500 vs 20.800
[4]; glycan lost
  expression_or_secretion, percent_of_wt: decreases

B4: DSPAα1: QNGlyα1 (protein)
parent chain: B1 parent chain
[1]; glycan lost
  enzymatic_activity, percent_of_wt: abolishes
[2]; glycan lost
  stability_or_folding: no change
[3]; glycan lost
  stability_or_folding: no change
[9]; glycan lost
  other: bleeding time in rats: increases
[10]; glycan lost
  other: plasma D-dimer course in rats: increases
  other: plasma α2-AP concentration in rats: no change
[5]; glycan lost
  other: fibrin selectivity, other: ratio Fbn/Fbg: decreases, 0.700 vs 20.800
[11]; glycan lost
  other: plasminogen activation in rats: abolishes
[12]; glycan lost
  other: thrombolytic efficacy in rats, other: total score: decreases, 103.333 ± 0.816 vs 61.667 ± 1.966
[13]; glycan lost
  other: thrombolytic efficacy in rats, other: recanalized rats: abolishes, 0/8 vs 4/8
[4]; glycan lost
  expression_or_secretion, percent_of_wt: decreases
[14]; glycan lost
  other: thrombolytic efficacy in rats: abolishes
[15]; glycan lost
  other: plasma FDP rise in rats: decreases

B5: DSPAα1: ANGlyα1 + 2 (protein)
parent chain: B1 parent chain
[1]; glycan gained
  enzymatic_activity, percent_of_wt: decreases
[2]; glycan gained
  stability_or_folding: no change
[3]; glycan gained
  stability_or_folding: no change
[9]; glycan gained
  other: bleeding time in rats: no change
[10]; glycan gained
  other: plasma D-dimer course in rats: changes
  other: plasma PAI concentration in rats: no change
  other: plasma α2-AP concentration in rats: decreases
[5]; glycan gained
  other: fibrin selectivity, other: ratio Fbn/Fbg: decreases, 13.100 vs 20.800
[11]; glycan gained
  other: plasminogen activation in rats: decreases
[16]
  other: platelet count in rats, other: PLT: no change, 712.667 ± 16.010 vs 724.333 ± 50.817
[6]; glycan gained
  enzymatic_activity, kcat_Km: decreases, 248.960 ± 6.330 vs 282.240 ± 13.070
[12]; glycan gained
  other: thrombolytic efficacy in rats, other: total score: decreases, 92.500 ± 1.049 vs 61.667 ± 1.966
[7]; glycan gained
  enzymatic_activity, kcat_Km: decreases, 3257.040 ± 561.250 vs 5883.440 ± 983.570, The Kcat/Km of ANGlyα1 + 2 was 79% of rDSPAα1 when fibrin was used as a cofactor
[13]; glycan gained
  other: thrombolytic efficacy in rats, other: recanalized rats: decreases, 3/8 vs 4/8
[4]; glycan gained
  expression_or_secretion, percent_of_wt: no change
[14]; glycan gained
  other: thrombolytic efficacy in rats: decreases
[15]; glycan gained
  other: plasma FDP rise in rats: increases
